Results on 1 substance are retold here after patent US20130236470A1.

The target in assay [1] is HLA-DR expressed by L428 cells (human). In words: flow cytometry on L428 cells, antibody 31.2 ng/mL.
Assay [2] shares this target. In words: flow cytometry on L428 cells, antibody 0.98 ng/mL.
Assay [3] shares this target. As to the kind of experiment: flow cytometry on L428 cells, antibody 1.95 ng/mL.
Assay [4] shares this target. In words: flow cytometry on L428 cells, antibody 15.6 ng/mL.
The target is the same in assay [5]. In words: flow cytometry on L428 cells, antibody 125.0 ng/mL.
Assay [6] shares this target. As to the kind of experiment: flow cytometry on L428 cells, antibody 250.0 ng/mL.
The target is the same in assay [7]. In words: flow cytometry on L428 cells, antibody 7.8 ng/mL.
The target is the same in assay [8]. As to the kind of experiment: flow cytometry on L428 cells, antibody 3.9 ng/mL.
For assay [9] the target is unchanged. In words: flow cytometry on L428 cells, antibody 62.5 ng/mL.
Assay [10] shares this target. As to the kind of experiment: flow cytometry on L428 cells, antibody 0.0 ng/mL (background).

As to “commercially available antibody (clone name: LN3) known to bind to HLA-DR”, the Ability to bind (average strength) in assay [1] was 928; in assay [2], 181; in assay [3], 230; in assay [4], 694; in assay [5], 2420; in assay [6], 3270. Besides, the Ability to bind (average strength) in [7] was found to be 430; in assay [8], 339; in [9], 1610; in assay [10], 129.
